Results reported in patent US20170320965A1, “PAN-REACTIVE ANTIBODIES TO DUOCARMYCINS” (SYNTHON BIOPHARMACEUTICALS B.V., priority 2014, published 2017).

System: panel of 18 different duocarmycin-containing antibody-drug conjugates having a common DNA alkylating moiety
Assay: BIA (Biomolecular Interaction Analysis) assay, surface plasmon resonance, second screening for pan-reactive antibodies
Assay type: binding
Settings: anti-hapten mAb captured on polyclonal anti-mouse surface; ADCs 1 to 18 of FIG. 2 injected sequentially, approx. 20 μg/mL, 25° C.
Excerpt: The samples of the supernatant culture fluid are screened with a suitable assay for the selection of pan-reactive antibodies reactive to the antigen. Suitable immunoassays are well known and may be readily determined by the person skilled in the art. A preferred immuno-assay is the Biomolecular Interaction Analysis (BIA) assay in which the sensor chip surface is modified by immobilization of polyclonal anti-mouse which results in a surface that can bind any mouse monoclonal antibodies.
In a specific embodiment of the present invention, the BIA assay is performed using an anti-hapten A, B or C monoclonal antibody captured on a polyclonal anti-mouse surface to a high binding level (capture reagent). Subsequently, a panel of duocarmycin-containing antibody-drug conjugates is injected sequentially and the signal (RU, resonance or responsive units) indicating binding is recorded. The panel of duocarmycin derivatives contain the same DNA alkylating moiety as a common structural moiety (as shown hereinabove), but have a different DNA binding moiety, and/or linker, and/or antibody. Monoclonal, pan-reactive antibodies are selected based on surface plasmon resonance (SPR), which response is directly proportional to the mass increase on the surface. An increase in mass on the surface is a positive binding reaction. Those antibodies binding to at least 3, preferably at least 5, more preferably at least 10, even more preferably at least 15, most preferably at least 18 different duocarmycin-containing antibody-drug conjugates having the same DNA alkylating moiety described hereinabove, are selected as pan-reactive antibodies in accordance with the present invention.
The BIA (Biomolecular Interaction Analysis) assay was used for the selection of monoclonal, pan-reactive antibodies. One flow cell on a CMS sensor chip was immobilized by amine coupling with polyclonal anti-mouse to a level of approx. 16,000 RU. […]

Molecule	binding to a panel of 18 different duocarmycin-containing antibody-drug conjugates
A-15-5-4: monoclonal, pan-reactive anti-duocarmycin antibody derived from hapten A; VH/VL SEQ ID NO:1 and 2 (antibody, listed as Mus musculus, V domains shown) VH: QVQLQQPGAELVKPGASVKLPCKASGYTFISYYMYWVKQRPGQGLEWIGVINPSNGGTTFNEKFKNKATLTVDKSSSTAYLQLSSLTSEDSAVYYCTCLNYYGSSYWYFDVWGAGTTVTVSS VL: DVVMTQTPLSLPVSLGDQASIFCRSSQSLVHSDGNTYLHWYLQKPGQSPKLLIYTVSNRFSGVPDRFSGSGSGTDFTLKISRVEAEDLGVYFCSQSTHVPWTFGGGTTLEIK	show binding
B-6-2-10: monoclonal, pan-reactive anti-duocarmycin antibody derived from hapten B; VH/VL SEQ ID NO:3 and 4 (antibody, listed as Mus musculus, V domains shown) VH: DVKLVESGGGLVKPGGSLKLSCAASGFTFRTYTMSWVRQTPEKRLEWVATISSGGSYTYYPDSMKGRFTISRDNAKNTLYLQMSSLKSEDTAMYYCTRGPFYDVYYFLFAYWGQGTLVTVSA VL: QAVVTQESALTTSPGETVTLTCRSSIGAVTTTNYANWVQEKPDHLFTGLIGGTNNRAPGVPARFSGSLIGDKAALTITGAQTEDEAIYFCALWYSNHWVFGGGTKLTVL	show binding
C-16-1-7: monoclonal, pan-reactive anti-duocarmycin antibody derived from hapten C; VH/VL SEQ ID NO:5 and 6 (antibody, listed as Mus musculus, V domains shown) VH: EVKLVESGGGLVKPGGSLKVSCAASGFTFSSYAMSWVRQIPDKRLEWVASISTGGITYYLDGVKGRFTISRDNARNILYLQMSSLRSEDTAIYYCARWSYAMDYWGQGTSVTVSS VL: QIVLTQSPAIMSASLGERVTMTCTASSSVSSSYLHWYQQKPGSSPKVWIYSTSNLASGVPARFRGSGSGTSYSLTISSMEAEDAATYYCHQYHRSPPTFGGGTKLEIK	show binding
